Test results: publication PMC11162810, “Functional redundancy in tRNA dihydrouridylation” (Nucleic Acids Research, 2024)

T1: BsDusB2 (Bacillus subtilis, UniProt O31546)
T1 construct: gene dus2; monomer about 39 kDa; synthetic gene (Eurofins)
T1 sequence (O31546 1-325): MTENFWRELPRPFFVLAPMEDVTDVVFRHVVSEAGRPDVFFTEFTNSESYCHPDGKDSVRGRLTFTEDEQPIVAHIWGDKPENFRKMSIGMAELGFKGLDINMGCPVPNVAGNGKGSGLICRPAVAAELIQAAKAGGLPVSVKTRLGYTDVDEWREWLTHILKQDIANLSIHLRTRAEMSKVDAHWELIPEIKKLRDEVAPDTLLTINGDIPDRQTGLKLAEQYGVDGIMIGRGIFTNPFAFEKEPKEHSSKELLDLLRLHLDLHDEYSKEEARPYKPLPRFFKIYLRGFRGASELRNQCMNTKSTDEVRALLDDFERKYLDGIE

T2: BsDusB1 (Bacillus subtilis, UniProt P37567)
T2 construct: gene dus1; monomer about 40 kDa; synthetic gene (Eurofins)
T2 sequence (P37567 1-333): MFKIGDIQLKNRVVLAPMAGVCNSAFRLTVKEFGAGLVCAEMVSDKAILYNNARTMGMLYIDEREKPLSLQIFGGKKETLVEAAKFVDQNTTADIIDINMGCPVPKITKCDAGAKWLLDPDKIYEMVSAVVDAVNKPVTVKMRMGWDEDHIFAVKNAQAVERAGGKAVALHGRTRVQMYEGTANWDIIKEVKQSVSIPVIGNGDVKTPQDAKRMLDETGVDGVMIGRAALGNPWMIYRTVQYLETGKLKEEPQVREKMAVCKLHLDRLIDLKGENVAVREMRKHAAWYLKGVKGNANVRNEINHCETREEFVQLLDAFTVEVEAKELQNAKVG

B1: BsDusB2 (Bacillus subtilis subsp. subtilis str. 168) (protein)
chain: T1 sequence (O31546 1-325)
notes: monomer about 39 kDa; synthetic gene (Eurofins)
B2: BsDusB1 (Bacillus subtilis subsp. subtilis str. 168) (protein)
chain: T2 sequence (P37567 1-333)
notes: monomer about 40 kDa; synthetic gene (Eurofins)

Experiments:
BsDusB2 = target: T1, BsDusB2; experiment: copurified flavin, UV-visible absorption and fluorescence, SDS release; assay type: binding; conditions: non-covalent
BsDusB1 = target: T2, BsDusB1; experiment: as above; assay type: binding; conditions: non-covalent
purified protein [1] = substrate: NC(=O)C1=CN([C@@H]2O[C@H](COP(=O)(O)OP(=O)(O)OC[C@H]3O[C@@H](n4cnc5c(N)ncnc54)[C@H](O)[C@@H]3O)[C@@H](O)[C@H]2O)C=CC1; experiment: purified protein; assay type: biochemical, Bacillus subtilis; conditions: aerobic (NAD(P)H oxidase, no tRNA mentioned)
purified protein [2] = substrate: NC(=O)C1=CN([C@@H]2O[C@H](COP(=O)(O)OP(=O)(O)OC[C@H]3O[C@@H](n4cnc5c(N)ncnc54)[C@H](OP(=O)(O)O)[C@@H]3O)[C@@H](O)[C@H]2O)C=CC1; experiment: purified protein; assay type: biochemical, Bacillus subtilis; conditions: aerobic (NAD(P)H oxidase, no tRNA mentioned)

Row | Molecule | copurified flavin, UV-visible absorption and fluorescence, SDS release (BsDusB2) | copurified flavin, UV-visible absorption and fluorescence, SDS release (BsDusB1) | Km (purified protein [1]; kcat error missing in the table) | Km (purified protein [2]) | kcat (purified protein [2]) | kcat/Km (purified protein [2]) | Km (purified protein [1]) | kcat (purified protein [1]) | kcat/Km (purified protein [1])
1 | Cc1cc2nc3c(=O)[nH]c(=O)nc-3n(C[C@H](O)[C@H](O)[C@H](O)COP(=O)(O)O)c2cc1C [FMN] | both BsDusB enzymes are flavoproteins with the FMN non-covalently bound to the apoprotein | both BsDusB enzymes are flavoproteins with the FMN non-covalently bound to the apoprotein | – | – | – | – | – | – | –
2 | B1 | – | – | 22 ± 4 µM | 2.1 ± 0.2 µM | 0.7 ± 0.1 s⁻¹ | 300000 M⁻¹ s⁻¹ | – | – | –
3 | B2 | – | – | – | 18 ± 3 µM | 0.013 ± 0.002 s⁻¹ | 700 M⁻¹ s⁻¹ | 21 ± 4 µM | 0.013 ± 0.0014 s⁻¹ | 600 M⁻¹ s⁻¹
